According to PMC5148919, “Enhanced production of 2,3-butanediol by engineered Saccharomyces cerevisiae through fine-tuning of pyruvate decarboxylase and NADH oxidase activities” (Biotechnology for Biofuels, 2016):

Experiments:
[1] = system: T1, CtPdc1; test: coupled ADH/NADH assay at […] nm, crude extract, Lineweaver-Burk; format: cell-based, Candida viswanathii (printed as Candida tropicalis); conditions: pH 6.5 imidazole, 30 °C, 5 mM MgCl2, 0.2 mM TPP, 0.4 mM NADH; pyruvate 1.56-100 mM
T1 construct: gene PDC1; full-length ORF from genomic DNA, TDH3 promoter multi-copy plasmid in Pdc-deficient S. cerevisiae SOS5; no tag mentioned; ORF ends NAAQE by primer

[2] = substrate: CC(=O)C(=O)O; test: cells, lysate or membranes; format: cell-based, Kluyveromyces marxianus; conditions: pH 6.5 imidazole, 30 °C, 5 mM MgCl2, 0.2 mM TPP, 0.4 mM NADH, pyruvate 1.56-100 mM
[3] = substrate: CC(=O)C(=O)O; test: cells, lysate or membranes; format: cell-based, Saccharomyces cerevisiae; conditions: pH 6.5 imidazole, 30 °C, 5 mM MgCl2, 0.2 mM TPP, 0.4 mM NADH, pyruvate 1.56-100 mM

Work on `CC(=O)C(=O)O` [pyruvate] yielded a Km [1] of 2.7 mM.

B1: K. marxianus Pdc1 (Kluyveromyces marxianus) (protein)
chain: MSEITLGRYLFERLKQVEVQTIFGLPGDFNLSLLDKIYEVPGMRWAGNANELNAAYAADGYARLKGMACVITTFGVGELSALNGIAGSYAEHVGVLHVVGVPSISSQAKQLLLHHTLGNGDFTVFHRMSSNISETTAMITDINSAPSEIDRCIRTTYISQRPVYLGLPANLVDLKVPASLLETPIDLSLKPNDPEAENEVLETVLELIKDAKNPVILADACCSRHNVKAETKKLIDITQFPAFVTPMGKGSIDEQHPRFGGVYVGTLSSPEVKEAVESADLVLSVGALLSDFNTGSFSYSYKTKNIVEFHSDYIKVRNATFPGVQMKFVLQKLLTKVKDAAKGYKPVPVPHAPRDNKPVADSTPLKQEWVWTQVGKFLQEGDVVLTETGTSAFGINQTHFPNDTYGISQVLWGSIGFTGGATLGAAFAAEEIDPKKRVILFIGDGSLQLTVQEISTMIRWGLKPYLFVLNNDGYTIERLIHGETAQYNCIQSWKHLDLLPTFGAKDYEAVRVATTGEWNKLTTDKKFQENSKIRLIEVMLPVMDAPSNLVKQAQLTASINAKQE
notes: full-length ORF from genomic DNA, TDH3 promoter multi-copy plasmid in Pdc-deficient S. cerevisiae SOS5; no tag mentioned; ORF ends NAKQE by primer
B1 gave a Km [2] of 7.7 mM.

B2: Pdc5 (Saccharomyces cerevisiae S288C) (protein)
chain: MSEITLGKYLFERLSQVNCNTVFGLPGDFNLSLLDKLYEVKGMRWAGNANELNAAYAADGYARIKGMSCIITTFGVGELSALNGIAGSYAEHVGVLHVVGVPSISSQAKQLLLHHTLGNGDFTVFHRMSANISETTAMITDIANAPAEIDRCIRTTYTTQRPVYLGLPANLVDLNVPAKLLETPIDLSLKPNDAEAEAEVVRTVVELIKDAKNPVILADACASRHDVKAETKKLMDLTQFPVYVTPMGKGAIDEQHPRYGGVYVGTLSRPEVKKAVESADLILSIGALLSDFNTGSFSYSYKTKNIVEFHSDHIKIRNATFPGVQMKFALQKLLDAIPEVVKDYKPVAVPARVPITKSTPANTPMKQEWMWNHLGNFLREGDIVIAETGTSAFGINQTTFPTDVYAIVQVLWGSIGFTVGALLGATMAAEELDPKKRVILFIGDGSLQLTVQEISTMIRWGLKPYIFVLNNNGYTIEKLIHGPHAEYNEIQGWDHLALLPTFGARNYETHRVATTGEWEKLTQDKDFQDNSKIRMIEVMLPVFDAPQNLVKQAQLTAATNAKQ
notes: full-length ORF from genomic DNA, TDH3 promoter multi-copy plasmid in Pdc-deficient S. cerevisiae SOS5; no tag mentioned
In the case of B2, the Km [3] is reported as 9.9 mM.

B3: Pdc6 (Saccharomyces cerevisiae S288C) (protein)
chain: SEITLGKYLFERLKQVNVNTIFGLPGDFNLSLLDKIYEVDGLRWAGNANELNAAYAADGYARIKGLSVLVTTFGVGELSALNGIAGSYAEHVGVLHVVGVPSISAQAKQLLLHHTLGNGDFTVFHRMSANISETTSMITDIATAPSEIDRLIRTTFITQRPSYLGLPANLVDLKVPGSLLEKPIDLSLKPNDPEAEKEVIDTVLELIQNSKNPVILSDACASRHNVKKETQKLIDLTQFPAFVTPLGKGSIDEQHPRYGGVYVGTLSKQDVKQAVESADLILSVGALLSDFNTGSFSYSYKTKNVVEFHSDYVKVKNATFLGVQMKFALQNLLKVIPDVVKGYKSVPVPTKTPANKGVPASTPLKQEWLWNELSKFLQEGDVIISETGTSAFGINQTIFPKDAYGISQVLWGSIGFTTGATLGAAFAAEEIDPNKRVILFIGDGSLQLTVQEISTMIRWGLKPYLFVLNNDGYTIEKLIHGPHAEYNEIQTWDHLALLPAFGAKKYENHKIATTGEWDALTTDSEFQKNSVIRLIELKLPVFDAPESLIKQAQLTAATNAKQ
notes: as for B2
With B3 the Km [3] was 8.2 mM.

B4: ScPdc1 (Saccharomyces cerevisiae S288C) (protein)
chain: SEITLGKYLFERLKQVNVNTVFGLPGDFNLSLLDKIYEVEGMRWAGNANELNAAYAADGYARIKGMSCIITTFGVGELSALNGIAGSYAEHVGVLHVVGVPSISAQAKQLLLHHTLGNGDFTVFHRMSANISETTAMITDIATAPAEIDRCIRTTYVTQRPVYLGLPANLVDLNVPAKLLQTPIDMSLKPNDAESEKEVIDTILALVKDAKNPVILADACCSRHDVKAETKKLIDLTQFPAFVTPMGKGSIDEQHPRYGGVYVGTLSKPEVKEAVESADLILSVGALLSDFNTGSFSYSYKTKNIVEFHSDHMKIRNATFPGVQMKFVLQKLLTTIADAAKGYKPVAVPARTPANAAVPASTPLKQEWMWNQLGNFLQEGDVVIAETGTSAFGINQTTFPNNTYGISQVLWGSIGFTTGATLGAAFAAEEIDPKKRVILFIGDGSLQLTVQEISTMIRWGLKPYLFVLNNDGYTIEKLIHGPKAQYNEIQGWDHLSLLPTFGAKDYETHRVATTGEWDKLTQDKSFNDNSKIRMIEIMLPVFDAPQNLVEQAKLTAATNAKQ
notes: as for B2
In the case of B4, the Km [3] is reported as 4.7 mM.
